± gives the uncertainty stated by the source.
Experiment: self-splicing fitness, log relative to wild type (ln ratio); higher = more splicing; Tetrahymena group I intron in knt gene, E. coli kanamycin selection, DiMSum; sequences stand for … in CUCUCU…GGAGGGAAAAGUUAUCAGGCAUGCACCUGGUAGCUAGUCUUUAAACCAAUAGAUUGCAUCGGUUUAAAAGGCAAGACCGUCAAAUUGCGGGAAAGGGGUCAACAGCCGUUCAGUACCAAGUCUCAGGGGAAACUUUGAGAUGGCCUUGCAAAGGGUAUGGUAAUAAGCUGACGGACAUGGUCCUAACCACGCAGCCAAGUCCUAAGUCAACAGAUCUUCUGUUGAUAUGGAUGCAGUUCACAGACUAAAUGUCGGUCGGGGAAGAUGUAUUCUUCUCAUAAGAUAUAGUCGGACCUCUCCUUAAUGGGAGCUAGCGGAUGAAGUGAUGCAACACUGGAGCCGCUGGGAACUAAUUUGUAUGCGAAAGUAUAUUGAUUAGUUUUGGAGUACUCGUGGUCG
Procedure, shortened: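 Pooled colonies went to amplicon sequencing on an Illumina HiSeq 2500 after six replicate transformations. The plates were LB agar with 100 μg/mL carbenicillin, 50 μM IPTG and 0.2% rhamnose, with or without 25 μg/mL kanamycin, incubated overnight at 37°C or 30°C. The E. coli BL21(DE3) library had all eight P1ex-region intron nucleotides randomised, the intron placed in the knt kanamycin-resistance gene on pET-22b(+). DiMSum fitness is the error-weighted combination of replicate fold changes, kanamycin against none, normalised to wild type.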

Row | Sequence | self-splicing fitness (ln) (30 °C) | self-splicing fitness (ln) (37 °C)
1 | GCAAAGCAAUAUUACGAUUA | -0.0977 ± 0.11 | -1.13 ± 0.13
2 | GCAAAGCAAUAUUACGAUUG | -3.55 ± 0.21 | -1.28 ± 0.15
3 | GCAAAGCAAUAUUACGCACA | -0.917 ± 0.12 | -0.182 ± 0.14
4 | GCAAAGCAAUAUUACGCAUC | -1.98 ± 0.16 | -1.4 ± 0.17
5 | GCAAAGCAAUAUUACGCCCA | -1.56 ± 0.16 | -0.194 ± 0.15
6 | GCAAAGCAAUAUUACGCCGU | -2.85 ± 0.21 | -2.46 ± 0.23
7 | GCAAAGCAAUAUUACGCCUA | -3.76 ± 0.42 | -1.11 ± 0.21
8 | GCAAAGCAAUAUUACGCGUC | -2.92 ± 0.28 | -1.94 ± 0.32
9 | GCAAAGCAAUAUUACGCUAG | -2.78 ± 0.088 | -2.51 ± 0.084
10 | GCAAAGCAAUAUUACGCUCG | -0.748 ± 0.17 | -0.86 ± 0.24
11 | GCAAAGCAAUAUUACGCUCU | -1.27 ± 0.075 | -0.565 ± 0.097
12 | GCAAAGCAAUAUUACGCUUA | -2.59 ± 0.15 | -1.46 ± 0.12
13 | GCAAAGCAAUAUUACGGCUU | -1.48 ± 0.11 | -0.763 ± 0.15
14 | GCAAAGCAAUAUUACGGUAA | -0.837 ± 0.12 | -0.921 ± 0.13
15 | GCAAAGCAAUAUUACGGUGG | -2.27 ± 0.12 | -2.43 ± 0.19
16 | GCAAAGCAAUAUUACGUCUA | -0.983 ± 0.13 | -0.637 ± 0.11
17 | GCAAAGCAAUAUUACGUGAC | -2.78 ± 0.12 | -1.1 ± 0.13
18 | GCAAAGCAAUAUUACGUGGG | -3.38 ± 0.15 | -3.07 ± 0.16
19 | GCAAAGCAAUAUUACGUGUU | -1.88 ± 0.086 | -1.03 ± 0.11
20 | GCAAAGCAAUAUUACGUUGA | -1.67 ± 0.088 | -1.03 ± 0.094
21 | GCACAGCAAUAUUACGACGA | -0.897 ± 0.13 | 0.243 ± 0.15
22 | GCACAGCAAUAUUACGACGU | -0.591 ± 0.073 | -0.0751 ± 0.088
23 | GCACAGCAAUAUUACGAGGG | -1.9 ± 0.091 | -1.14 ± 0.14
24 | GCACAGCAAUAUUACGAGGU | -1.85 ± 0.095 | 0.0148 ± 0.11
25 | GCACAGCAAUAUUACGAUGU | -2.05 ± 0.079 | -0.389 ± 0.088

Row | Sequence | self-splicing fitness (ln) (30 °C) | self-splicing fitness (ln) (37 °C)
26 | GCACAGCAAUAUUACGAUUU | -0.869 ± 0.042 | -0.0519 ± 0.058
27 | GCACAGCAAUAUUACGCAAG | -3.59 ± 0.24 | -2.51 ± 0.19
28 | GCACAGCAAUAUUACGCCAA | -3.77 ± 0.25 | -2.56 ± 0.2
29 | GCACAGCAAUAUUACGCCUA | -0.82 ± 0.13 | -0.373 ± 0.11
30 | GCACAGCAAUAUUACGCGAC | -1.75 ± 0.13 | -1.18 ± 0.16
31 | GCACAGCAAUAUUACGCUAC | -3.81 ± 0.37 | -2.29 ± 0.25
32 | GCACAGCAAUAUUACGGACG | -1.3 ± 0.14 | 0.0137 ± 0.14
33 | GCACAGCAAUAUUACGGAGC | -2.16 ± 0.15 | -2.1 ± 0.21
34 | GCACAGCAAUAUUACGGCUC | -0.268 ± 0.071 | 0.523 ± 0.076
35 | GCACAGCAAUAUUACGUAUC | -0.923 ± 0.061 | -0.833 ± 0.066
36 | GCACAGCAAUAUUACGUCCC | -0.0609 ± 0.11 | -0.44 ± 0.11
37 | GCACAGCAAUAUUACGUGGG | -1.53 ± 0.059 | -1.47 ± 0.067
38 | GCACAGCAAUAUUACGUUUA | -1.19 ± 0.066 | -0.603 ± 0.066
39 | GCAGAGCAAUAUUACGAAAC | -3.28 ± 0.14 | -2.23 ± 0.14
40 | GCAGAGCAAUAUUACGAACG | – | -1.78 ± 0.43
41 | GCAGAGCAAUAUUACGAAGU | -2.88 ± 0.12 | -1.03 ± 0.13
42 | GCAGAGCAAUAUUACGACAG | -3.01 ± 0.15 | -2.74 ± 0.26
43 | GCAGAGCAAUAUUACGACAU | -3.172 ± 0.023 | -2.06 ± 0.037
44 | GCAGAGCAAUAUUACGACUA | -2.45 ± 0.27 | -2.12 ± 0.24
45 | GCAGAGCAAUAUUACGACUU | -2.82 ± 0.16 | -0.936 ± 0.14
46 | GCAGAGCAAUAUUACGAGAA | – | -1.96 ± 0.32
47 | GCAGAGCAAUAUUACGAGAG | -3 ± 0.47 | -1.95 ± 0.32
48 | GCAGAGCAAUAUUACGAGUA | -3.23 ± 0.5 | -1.35 ± 0.43
49 | GCAGAGCAAUAUUACGAUCA | -4.02 ± 0.42 | -1.94 ± 0.18
50 | GCAGAGCAAUAUUACGCAAG | -3.03 ± 0.16 | -2.28 ± 0.17

Row | Sequence | self-splicing fitness (ln) (30 °C) | self-splicing fitness (ln) (37 °C)
51 | GCAGAGCAAUAUUACGCCUC | -2.46 ± 0.21 | -2.38 ± 0.34
52 | GCAGAGCAAUAUUACGCCUG | – | -1.33 ± 0.47
53 | GCAGAGCAAUAUUACGCGGA | -3.11 ± 0.34 | -2.91 ± 0.35
54 | GCAGAGCAAUAUUACGCGGU | -4.68 ± 0.29 | -3.16 ± 0.37
55 | GCAGAGCAAUAUUACGGACA | – | -0.844 ± 0.3
56 | GCAGAGCAAUAUUACGGGCC | – | -0.867 ± 0.3
57 | GCAGAGCAAUAUUACGGUCU | -3.54 ± 0.25 | -2.39 ± 0.27
58 | GCAGAGCAAUAUUACGUAGG | -2.17 ± 0.11 | -1.7 ± 0.14
59 | GCAGAGCAAUAUUACGUAUC | -2.59 ± 0.33 | -2.08 ± 0.41
60 | GCAGAGCAAUAUUACGUCCA | -2 ± 0.25 | -2.98 ± 0.4
61 | GCAGAGCAAUAUUACGUCGG | -2.57 ± 0.34 | -1.69 ± 0.46
62 | GCAGAGCAAUAUUACGUUAA | -1.87 ± 0.27 | -2.64 ± 0.42
63 | GCAUAGCAAUAUUACGAACG | -0.883 ± 0.14 | -0.356 ± 0.18
64 | GCAUAGCAAUAUUACGAAUC | -2.12 ± 0.33 | -1.55 ± 0.32
65 | GCAUAGCAAUAUUACGAUAC | -1.47 ± 0.13 | -0.915 ± 0.14
66 | GCAUAGCAAUAUUACGAUGG | -1.01 ± 0.09 | -0.54 ± 0.11
67 | GCAUAGCAAUAUUACGAUUC | -0.8 ± 0.083 | -0.436 ± 0.097
68 | GCAUAGCAAUAUUACGCAUU | -2.81 ± 0.26 | -0.0868 ± 0.17
69 | GCAUAGCAAUAUUACGCCCA | -2.41 ± 0.19 | -0.965 ± 0.16
70 | GCAUAGCAAUAUUACGCGAG | -2.42 ± 0.23 | -1.72 ± 0.17
71 | GCAUAGCAAUAUUACGCGUA | -1.43 ± 0.13 | -0.403 ± 0.12
72 | GCAUAGCAAUAUUACGCUAC | -3.61 ± 0.34 | -2.11 ± 0.27
73 | GCAUAGCAAUAUUACGGAAG | -3.8 ± 0.34 | -2.09 ± 0.37
74 | GCAUAGCAAUAUUACGGAAU | -2.21 ± 0.16 | -1.84 ± 0.23
75 | GCAUAGCAAUAUUACGGCGG | -2.63 ± 0.19 | -2.26 ± 0.37

Row | Sequence | self-splicing fitness (ln) (30 °C) | self-splicing fitness (ln) (37 °C)
76 | GCAUAGCAAUAUUACGGGGA | -3.23 ± 0.28 | -2.37 ± 0.19
77 | GCAUAGCAAUAUUACGGUAC | -2.07 ± 0.097 | -1.47 ± 0.091
78 | GCAUAGCAAUAUUACGGUAU | -2.86 ± 0.16 | -1.75 ± 0.12
79 | GCAUAGCAAUAUUACGUAAG | -1.63 ± 0.083 | -0.386 ± 0.12
80 | GCAUAGCAAUAUUACGUCGA | -1.63 ± 0.15 | -0.979 ± 0.15
81 | GCAUAGCAAUAUUACGUCUG | -1.87 ± 0.068 | -0.701 ± 0.072
82 | GCAUAGCAAUAUUACGUGGU | -3.13 ± 0.14 | -2.8 ± 0.15
83 | GCAUAGCAAUAUUACGUGUU | -3.84 ± 0.14 | -2.36 ± 0.088
84 | GCAUAGCAAUAUUACGUUCC | – | -2.25 ± 0.31
85 | GCCAAGCAAUAUUACGAACC | -2.03 ± 0.12 | -0.423 ± 0.14
86 | GCCAAGCAAUAUUACGAAGG | -2.52 ± 0.13 | -2.15 ± 0.22
87 | GCCAAGCAAUAUUACGACCA | -1.48 ± 0.17 | -1.36 ± 0.19
88 | GCCAAGCAAUAUUACGAGCU | -1.35 ± 0.12 | -1.46 ± 0.15
89 | GCCAAGCAAUAUUACGAGUU | -1.7 ± 0.066 | -0.45 ± 0.08
90 | GCCAAGCAAUAUUACGAUAA | -3.09 ± 0.17 | -1.6 ± 0.2
91 | GCCAAGCAAUAUUACGAUCG | -2.24 ± 0.22 | -2.42 ± 0.22
92 | GCCAAGCAAUAUUACGCAGG | -2.98 ± 0.17 | -2.05 ± 0.24
93 | GCCAAGCAAUAUUACGCGAC | -2.35 ± 0.11 | -0.858 ± 0.1
94 | GCCAAGCAAUAUUACGCUCG | -3.5 ± 0.2 | -1.84 ± 0.15
95 | GCCAAGCAAUAUUACGGAGA | -1.45 ± 0.086 | -0.924 ± 0.089
96 | GCCAAGCAAUAUUACGGCCG | -1.48 ± 0.23 | -2.11 ± 0.46
97 | GCCAAGCAAUAUUACGGCGA | -1.18 ± 0.093 | -0.756 ± 0.095

— the supplement of paper PMC7877785
